Sequences and labels used below:
T1: recombinant chimpanzee PSMA extracellular domain (ECD) protein (Pan troglodytes, UniProt Q04609 44-750 (human entry))
T1 construct: also called Chimp PSMA ECD; PSMG8
T1 chain: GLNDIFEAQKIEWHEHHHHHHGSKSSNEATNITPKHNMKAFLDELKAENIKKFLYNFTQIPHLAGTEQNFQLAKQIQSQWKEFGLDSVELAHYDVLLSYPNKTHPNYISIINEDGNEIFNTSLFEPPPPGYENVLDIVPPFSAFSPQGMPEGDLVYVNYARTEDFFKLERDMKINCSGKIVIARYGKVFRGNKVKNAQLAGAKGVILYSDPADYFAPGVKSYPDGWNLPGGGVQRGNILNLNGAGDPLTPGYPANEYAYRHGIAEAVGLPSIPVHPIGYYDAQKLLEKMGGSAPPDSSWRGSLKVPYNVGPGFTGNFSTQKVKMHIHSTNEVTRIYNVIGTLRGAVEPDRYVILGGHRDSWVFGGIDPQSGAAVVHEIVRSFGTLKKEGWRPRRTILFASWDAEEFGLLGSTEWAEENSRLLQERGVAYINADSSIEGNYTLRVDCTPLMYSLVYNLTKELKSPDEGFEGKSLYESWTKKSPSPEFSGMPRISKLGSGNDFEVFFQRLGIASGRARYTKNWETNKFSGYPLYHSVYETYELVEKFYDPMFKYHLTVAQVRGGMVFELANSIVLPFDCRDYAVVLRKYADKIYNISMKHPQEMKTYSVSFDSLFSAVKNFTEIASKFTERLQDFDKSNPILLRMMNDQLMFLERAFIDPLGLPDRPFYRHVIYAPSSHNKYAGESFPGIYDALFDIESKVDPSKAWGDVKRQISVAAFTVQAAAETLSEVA

T2: Cynomolgous monkey PSMA, full length (Macaca fascicularis, UniProt Q04609 1-750 (human entry))
T2 construct: On transfected HEK293F cells; also called cyno PSMA; EHH56646.1
T2 chain: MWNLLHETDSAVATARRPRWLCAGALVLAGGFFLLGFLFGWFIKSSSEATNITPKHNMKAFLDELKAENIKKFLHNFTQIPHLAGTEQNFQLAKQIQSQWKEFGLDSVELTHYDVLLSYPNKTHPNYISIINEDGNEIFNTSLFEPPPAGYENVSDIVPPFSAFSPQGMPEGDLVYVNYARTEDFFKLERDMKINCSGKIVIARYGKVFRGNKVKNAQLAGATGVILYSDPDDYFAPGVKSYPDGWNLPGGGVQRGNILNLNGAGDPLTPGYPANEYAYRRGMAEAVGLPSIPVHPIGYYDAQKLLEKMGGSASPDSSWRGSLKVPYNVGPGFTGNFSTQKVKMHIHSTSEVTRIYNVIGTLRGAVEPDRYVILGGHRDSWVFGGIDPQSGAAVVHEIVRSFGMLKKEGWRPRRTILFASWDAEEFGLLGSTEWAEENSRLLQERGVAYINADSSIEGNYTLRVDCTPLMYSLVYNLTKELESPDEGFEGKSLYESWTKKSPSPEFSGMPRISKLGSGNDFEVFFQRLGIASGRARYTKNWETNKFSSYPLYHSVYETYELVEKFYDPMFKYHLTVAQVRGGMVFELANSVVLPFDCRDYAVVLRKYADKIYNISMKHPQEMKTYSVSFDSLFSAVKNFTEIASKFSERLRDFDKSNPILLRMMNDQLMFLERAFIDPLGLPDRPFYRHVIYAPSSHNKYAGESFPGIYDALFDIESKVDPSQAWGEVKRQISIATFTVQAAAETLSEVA

B1: PS3B27 (bispecific antibody, human IgG4 S228P, kappa, lambda, F234A L235A)
heavy 1: not shown
light 1: not shown
heavy 2: EVQLVESGGGLVQPGGSLRLSCAASGFTFNTYAMNWVRQAPGKGLEWVARIRSKYNNYATYYAASVKGRFTISRDDSKNSLYLQMNSLKTEDTAVYYCARHGNFGNSYVSWFAYWGQGTLVTVSSASTKGPSVFPLAPCSRSTSESTAALGCLVKDYFPEPVTVSWNSGALTSGVHTFPAVLQSSGLYSLSSVVTVPSSSLGTKTYTCNVDHKPSNTKVDKRVESKYGPPCPPCPAPEAAGGPSVFLFPPKPKDTLMISRTPEVTCVVVDVSQEDPEVQFNWYVDGVEVHNAKTKPREEQFNSTYRVVSVLTVLHQDWLNGKEYKCKVSNKGLPSSIEKTISKAKGQPREPQVYTLPPSQEEMTKNQVSLTCLVKGFYPSDIAVEWESNGQPENNYKTTPPVLDSDGSFLLYSKLTVDKSRWQEGNVFSCSVMHEALHNHYTQKSLSLSLGK
light 2: QTVVTQEPSLTVSPGGTVTLTCRSSTGAVTTSNYANWVQQKPGQAPRGLIGGTNKRAPGTPARFSGSLLGGKAALTLSGVQPEDEAEYYCALWYSNLWVFGGGTKLTVLGQPKAAPSVTLFPPSSEELQANKATLVCLISDFYPGAVTVAWKADSSPVKAGVETTTPSKQSNNKYAASSYLSLTPEQWKSHRSYSCQVTHEGSTVEKTVAPTECS
notes: IgG4 PAA; PSMA arm chains first, then CD3 arm (F405L, R409K); also called PSMB127 x CD3B219; PS2B27
B2: PS3B22 (bispecific antibody, human IgG4 S228P, kappa, lambda, F234A L235A)
heavy 1: not shown
light 1: DIQMTQSPSSLSASVGDRVTITCRASQSIDRWLNWYQQKPGKAPKLLIYAASSLQSGVPSRFSGSGSGTDFTLTISSLQPEDFATYYCQQSPRYPLTFGQGTKVEIKRTVAAPSVFIFPPSDEQLKSGTASVVCLLNNFYPREAKVQWKVDNALQSGNSQESVTEQDSKDSTYSLSSTLTLSKADYEKHKVYACEVTHQGLSSPVTKSFNRGEC
heavy 2: B1 heavy 2
light 2: B1 light 2
notes: IgG4 PAA; PSMA arm chains first, then CD3 arm (F405L, R409K); also called PSMB122 x CD3B219; PSB22
B3: PS3B19 (bispecific antibody, human IgG4 S228P, kappa, lambda, F234A L235A)
heavy 1: not shown
light 1: not shown
heavy 2: B1 heavy 2
light 2: B1 light 2
notes: IgG4 PAA; PSMA arm chains first, then CD3 arm (F405L, R409K); also called PSMB119 x CD3B219
B4: PS3B28 (bispecific antibody, human IgG4 S228P, kappa, lambda, F234A L235A)
heavy 1: not shown
light 1: not shown
heavy 2: B1 heavy 2
light 2: B1 light 2
notes: IgG4 PAA; PSMA arm chains first, then CD3 arm (F405L, R409K); also called PSMB128 x CD3B219
B5: PS3B30 (bispecific antibody, human IgG4 S228P, kappa, lambda, F234A L235A)
heavy 1: not shown
light 1: not shown
heavy 2: B1 heavy 2
light 2: B1 light 2
notes: IgG4 PAA; PSMA arm chains first, then CD3 arm (F405L, R409K); also called PSMB130 x CD3B219
B6: PS3B23 (bispecific antibody, human IgG4 S228P, kappa, lambda, F234A L235A)
heavy 1: not shown
light 1: not shown
heavy 2: B1 heavy 2
light 2: B1 light 2
notes: IgG4 PAA; PSMA arm chains first, then CD3 arm (F405L, R409K); also called PSMB123 x CD3B219
B7: PS3B24 (bispecific antibody, human IgG4 S228P, kappa, lambda, F234A L235A)
heavy 1: not shown
light 1: not shown
heavy 2: B1 heavy 2
light 2: B1 light 2
notes: IgG4 PAA; PSMA arm chains first, then CD3 arm (F405L, R409K); also called PSMB124 x CD3B219
B8: PS3B25 (bispecific antibody, human IgG4 S228P, kappa, lambda, F234A L235A)
heavy 1: not shown
light 1: not shown
heavy 2: B1 heavy 2
light 2: B1 light 2
notes: IgG4 PAA; also called PSMB87 x CD3B219
B9: PS3B20 (bispecific antibody, human IgG4 S228P, kappa, lambda, F234A L235A)
heavy 1: not shown
light 1: not shown
heavy 2: B1 heavy 2
light 2: B1 light 2
notes: IgG4 PAA; PSMA arm chains first, then CD3 arm (F405L, R409K); also called PSMB120 x CD3B219

In one assay the target is T1, recombinant chimpanzee PSMA …. Kind of assay: SPR ProteOn, bsAb captured by anti-Fc. Here is the method: The interactions of PSMA×CD3 bispecific mAbs with target (recombinant Chimp, PSMA) were studied by Surface Plasmon Resonance (SPR) using a ProteOn XPR36 system (BioRad). […] Approximately 4400 RU (response units) of anti-Human IgG Fc antibodies were immobilized. The kinetic experiments were performed at 25° C. in running buffer (DPBS+0.03% P20+100 μg/ml BSA). […] The association phase was monitored for 3 minutes at 50 μL/min, then followed by 15 minutes of buffer flow (dissociation phase). The chip surface was regenerated with two 18 second pulses of 100 mM Phosphoric acid (H₃PO₄, Sigma, cat #7961) at 100 μL/min.
The collected data were processed using ProteOn Manager software. First, the data was corrected for background using inter-spots. Then, double reference subtraction of the data was performed by using the buffer injection for analyte injections. The kinetic analysis of the data was performed using a Langmuir 1:1 binding model.
The Kd is a measure of binding affinity in units of concentration. A word on the koff: it is the first-order rate constant of dissociation. The kon is a measure of how fast the partners come together. B1: the Kd was 10.4 nM, the koff came out at 0.00176 s⁻¹ and the kon amounted to 170000 M⁻¹ s⁻¹.

Regarding B2, the Kd came out at 19 nM, the koff was determined as 0.00124 s⁻¹ and the on-rate (kon) is 65100 M⁻¹ s⁻¹.

Consider B3, for which the Kd came to 23.6 nM, the koff was 0.000298 s⁻¹ and the kon was 12600 M⁻¹ s⁻¹.

Regarding B4, the Kd was 17.4 nM, the dissociation rate constant (koff) is 0.00233 s⁻¹ and the kon worked out at 134000 M⁻¹ s⁻¹.

Take B5: the Kd is 22.4 nM, the koff turned out to be 0.00165 s⁻¹ and the kon amounted to 73400 M⁻¹ s⁻¹.

For the molecule B6, the Kd came out at 1.8 nM, the koff worked out at 0.00176 s⁻¹ and the kon came to 989000 M⁻¹ s⁻¹.

Take B7: the Kd was 40.3 nM, the koff is 0.000252 s⁻¹ and the kon is 6260 M⁻¹ s⁻¹.

For B8, the Kd turned out to be 5.5 nM, the koff was determined as 0.00106 s⁻¹ and the kon is 195000 M⁻¹ s⁻¹.

For the molecule B9, the Kd was 21.4 nM, the koff worked out at 0.000378 s⁻¹ and the kon was 17600 M⁻¹ s⁻¹.

For another assay, the target named is T2, Cynomolgous monkey PSMA, full length. Kind of assay: FACS, whole cell binding, cyno PSMA HEK; calculated EC50. Here is the method:
PSMA×CD3 bispecific antibodies were tested for binding to PSMA positive cell lines LNCAP, human PSMA-HEK, Chimpanzee-PSMA-HEK and Cynomolgous monkey PSMA-HEK. To assess the binding capabilities of the PSMA bispecific antibodies, the cell-binding assay was utilized (described previously). Briefly, PSMA expressing tumor cells are bound by bispecific antibodies at known concentrations and the bound antibody is detected by an anti-human kappa light chain PE conjugated detection reagent (Invitrogen). The Mean Fluorescents Intensity (MFI) is the measure of bound bispecific antibody. The MFI is converted to a relative EC₅₀. EC₅₀ is a commonly used dose-response curve, where the half maximal effective concentration or the EC₅₀ point is defined as the inflection point of the curve. EC₅₀ s were determined by measuring cell bound bispecific and known concentrations. […] The dose response curves were then diluted down to that of background or no bispecific binding. The inflection point of this curve reflects the EC₅₀ point. The calculated EC₅₀ is determined by taking the ug/ml amount of bispecific antibody at the EC₅₀ point and converting it to a molarity value based on the MW of the bispecific antibody. Bispecific antibodies were normalized for protein concentration and then incubated with the same number of cells expressing either human or cyno PSMA. The MFI at each concentration was collected by flow cytometry and plotted as a function of concentration. Data was transformed via log 10 and then plotted. Nonlinear regression of binding curves was done to determine EC₅₀ s. These relative values were used for ranking PSMA binding to target cells.
In general, EC50 refers to the concentration that produces a half-maximal response. With B1, the EC50 was 9.9 nM.

For B2, the EC50 is 8 nM.

On to B3, for which the EC50 was 12.4 nM.

In the case of B4, the EC50 is 4.8 nM.

Consider B5, for which the EC50 was 37.8 nM.

With B6, the EC50 is 26.4 nM.

On to B7, for which the EC50 was 128 nM.

On to B9, for which the EC50 was 14.1 nM.
